These are literature values, as cited in publication PMC3526765.

A word on the pKa: it is the pH at which an ionisable group is half protonated.

This data set has as its target Cys30 (UniProt position 49, FFSFFCPHCYQ). The following applies: reduced DsbA (free Cys30 thiol/thiolate); inferred from context, not stated explicitly.

Consider “Thiol:disulfide interchange protein DsbA (EcDsbA) (Escherichia coli (K12))”, for which the pKa is recorded as about 3.3.
